Source: US20220040304A1, “A COMPOSITION FOR CANCER CELL DEATH AND ITS USE” (Industry-University Cooperation Foundation Hanyang …, priority 2018, published 2022)
Entries after “also recorded” stand apart in the source; their conditions may differ.

B1: KR: first protein KillerRed, ROS-generating protein (superoxide), expressed from pRSET-KillerRed, 31 kDa (protein)
chain: MRGSHHHHHHGMASMTGGQQMGRDLYDDDDKDPMLCCMRRTKQVEKNDEDQKISEGGPALFQSDMTFKIFIDGEVNGQKFTIVADGSSKFPHGDFNVHAVCETGKLPMSWKPICHLIQYGEPFFARYPDGISHFAQECFPEGLSIDRTVRFENDGTMTSHHTYELDDTCVVSRITVNCDGFQPDGPIMRDQLVDILPNETHMFPHGPNAVRQLAFIGFTTADGGLMMGHFDSKMTFNGSRAIEIPGPHFVTIITKQMRDTSDKRDHVCQREVAYAHSVPRITSAIGSDED
modifications: pRSET-KillerRed
notes: first protein KillerRed, ROS-generating protein (superoxide), expressed from pRSET-KillerRed, 31 kDa
B2: RLuc8.6-KR-LP: fusion protein of RLuc8.6, KillerRed and lead peptide WLEAAYQRFL, 71 kDa (protein)
chain: MRGSHHHHHHGMASMTGGQQMGRDLYDDDDKDPMASKVYDPEQRKRMITGPQWWARCKQMNVLDSFINYYDSEKHAENAVIFLHGNATSSYLWRHVVPHIEPVARCIIPDLIGMGKSGKSGNGSYRLLDHYKYLTAWFELLNLPKKIIFVGHDWGSALAFHYAYEHQDRIKAIVHMESVVDVIESWMGWPDIEEELALIKSEEGEKMVLENNFFVETLLPSKIMRKLEPEEFAAYLEPFKEKGEVRRPTLSWPREIPLVKGGKPDVVQIVRNYNAYLRASDDLPKLFIESDPGFFYNAIVEGAKKFPNTEFVKVKGLHFLQEDAPDEMGKYIKSFVERVLKNEQEFGGGMLCCMRRTKQVEKNDEDQKISEGGPALFQSDMTFKIFIDGEVNGQKFTIVADGSSKFPHGDFNVHAVCETGKLPMSWKPICHLIQYGEPFFARYPDGISHFAQECFPEGLSIDRTVRFENDGTMTSHHTYELDDTCVVSRITVNCDGFQPDGPIMRDQLVDILPNETHMFPHGPNAVRQLAFIGFTTADGGLMMGHFDSKMTFNGSRAIEIPGPHFVTIITKQMRDTSDKRDHVCQREVAYAHSVPRITSAIGSDEDGGGWLEAAYQRFL
modifications: pRSET-RLuc8.6-KillerRed-Lead peptide
B3: RLuc8.6-KR: fusion protein of RLuc8.6 and KillerRed without lead peptide, 69 kDa (protein)
chain: MRGSHHHHHHGMASMTGGQQMGRDLYDDDDKDPMASKVYDPEQRKRMITGPQWWARCKQMNVLDSFINYYDSEKHAENAVIFLHGNATSSYLWRHVVPHIEPVARCIIPDLIGMGKSGKSGNGSYRLLDHYKYLTAWFELLNLPKKIIFVGHDWGSALAFHYAYEHQDRIKAIVHMESVVDVIESWMGWPDIEEELALIKSEEGEKMVLENNFFVETLLPSKIMRKLEPEEFAAYLEPFKEKGEVRRPTLSWPREIPLVKGGKPDVVQIVRNYNAYLRASDDLPKLFIESDPGFFYNAIVEGAKKFPNTEFVKVKGLHFLQEDAPDEMGKYIKSFVERVLKNEQEFGGGMLCCMRRTKQVEKNDEDQKISEGGPALFQSDMTFKIFIDGEVNGQKFTIVADGSSKFPHGDFNVHAVCETGKLPMSWKPICHLIQYGEPFFARYPDGISHFAQECFPEGLSIDRTVRFENDGTMTSHHTYELDDTCVVSRITVNCDGFQPDGPIMRDQLVDILPNETHMFPHGPNAVRQLAFIGFTTADGGLMMGHFDSKMTFNGSRAIEIPGPHFVTIITKQMRDTSDKRDHVCQREVAYAHSVPRITSAIGSDED
modifications: pRSET-RLuc8.6-KillerRed

Key:
Type in all cases: cell-based, human
MCF-7 cells [1] = assay: MTT colorimetric change and cell viability after light irradiation; conditions: MCF-7, protein 10 μM 24 hours, light 10 mW/cm^2, no Co-h
Protocol: MCF-7 cells were seeded at 5×10^5 cells/mL in a 96-well plate (SPL Cell Culture Plate, 96 well (SPL, Cat #30096)), and cultured at 37° C. for 24 hours (overnight). After the overnight culture, the cells were washed with FBS & Phenol red-free media (RPMI, Well Gene., Korea, Cat #LM011-02), and 100 μL of an FBS-free medium containing the purified protein (final concentration: 10 μM) was added, followed by reaction at 37° C. for 24 hours. After the reaction for 24 hours, the cells were washed with FBS & Phenol red-free media (RPMI), and then 100 μL of FBS & Phenol red-free media (RPMI) was added again. After light irradiation at 10 mW/cm^2 over time, the cells were washed with FBS & Phenol red-free media (RPMI), and 100 μL of FBS & Phenol red-free media (RPMI) was added again. 10 μL of 3-(4,5-dimethylthiazol-2-yl)-2,5-diphenyltetrazolium bromide (MTT; Cell Biolabs Inc., USA; final concentration: 1×) was added, followed by reaction at 37° C. for 4 hours. 100 μL of a supernatant was removed, and 100 μL of DMSO (Sigma-Aldrich., USA) was added, followed by reaction for 10 minutes. The colorimetric change of MTT according to a protein type treated to the cells and light irradiation time was confirmed, and then cell viability was confirmed by measuring the absorbance intensity at 570 nm using a plate reader.

MCF-7 cells [2] = assay: MTT colorimetric change and cell viability after reaction with Co-h substrate; conditions: MCF-7, protein 10 μM 24 hours, Co-h 150 μM, without light irradiation
Protocol: MCF-7 cells were seeded at 5×10^5 cells/mL in a 96-well plate (SPL Cell Culture Plate, 96 well (SPL, Cat #30096)), and cultured at 37° C. for 24 hours (overnight).
After the culture for 24 hours, the cells were washed with FBS & Phenol red-free media (RPMI), and 100 μL of an FBS-free medium containing the purified protein (final concentration: 10 μM) was added, followed by reaction at 37° C. for 24 hours.
After the reaction for 24 hours, the cells were washed with FBS & Phenol red-free media (RPMI), and then 100 μL of FBS & Phenol red-free media (RPMI) containing a Co-h substrate solution (final concentration: 150 μM) was added. The cells were washed with FBS & Phenol red-free media (RPMI), and 100 μL of fresh FBS & Phenol red-free media (RPMI) were then added.
10 μL of 3-(4,5-dimethylthiazol-2-yl)-2,5-diphenyltetrazolium bromide (MTT) (final concentration: 1×) was added, followed by reaction at 37° C. for 4 hours. After 100 μL of a supernatant was removed, 100 μL of DMSO was added, followed by reaction for 10 minutes. The colorimetric change of MTT according to a protein type treated to the cells and the light irradiation time was checked, and then cell viability was confirmed by measuring the absorbance intensity at 570 nm using a plate reader.
MTT is an assay for measuring cell proliferation or live cells through the presence of blue-violet insoluble […] in the mitochondria of the live cells, where it has been reduced from a yellow soluble substrate, MTT tetrazolium, by the action of a dehydrogenase.

MCF-7 cells [3] = assay: Cell death by SYTOX Green or EthD-1 and DAPI fluorescence (light irradiation or Co-h); conditions: MCF-7, protein 10 μM 24 hours; light 10 mW/cm^2 or Co-h 150 μM over time
Protocol: MCF-7 cells were seeded at 5×10^5 cells/mL in a 96-well plate (SPL Cell Culture Plate, 96 well (SPL, Cat #30096)), and cultured at 37° C. for 24 hours (overnight). After the culture for 24 hours, the cells were washed with FBS & Phenol red-free media (RPMI), and 100 μL of an FBS-free medium containing the purified protein (final concentration: 10 μM) was added, followed by reaction at 37° C. for 24 hours.
After the reaction for 24 hours, the cells were washed with FBS & Phenol red-free media (RPMI), and then 100 μL of FBS & Phenol red-free media (RPMI) was then added.
After the reaction, 8.1 μL of FMN (final concentration: 150 μM) was added. After reaction for 18 hours or 24 hours, the cells were washed with FBS & Phenol red-free media (RPMI), and 100 μL of FBS & Phenol red-free media (RPMI) containing FMN (final concentration: 150 μM) was added, followed by reaction at 37° C. for 1 hour.
After the irradiation with light at 10 mW/cm^2 over time, 50 μL of SYTOX Green (Thermo Scientific Inc., USA; final concentration: 261 nM) staining DNA of dead cells was added and reacted at 37° C. for 30 minutes, and 10 μL of DAPI (Vecta Labs., Australia) staining DNA of live cells was added and reacted for 5 minutes.
SYTOX Green or EthD-1 and DAPI fluorescence images were observed using a confocal microscope according to a protein type treated to cells and i) light irradiation time or ii) reaction time with a Co-h substrate, and cell death was confirmed by measuring relative fluorescence intensity at an excitation wavelength of 504 nm and an emission wavelength of 523 nm of SYTOX Green, and an excitation wavelength of 525 nm and an emission wavelength of 590 nm of EthD-1 using a plate reader.
Whether or not Cell death was observed by fluorescence microscopy using SYTOX Green (dead cell-specific dye, green) or EthD-1 (dead cell-specific dye, red) and DAPI (live cell-specific dye, blue).

MCF-7 = assay: Cell death with Co-h substrate by cell type (SYTOX Green or EthD-1/DAPI); conditions: MCF-7, protein 10 μM, Co-h 150 μM for 5 minutes
Protocol: The cells were seeded at 5×10^5 cells/mL in 96-well plates (SPL Cell Culture Plate, 96 well (SPL, Cat #30096)), and cultured at 37° C. for 24 hours (overnight). After the culture for 24 hours, the cells were washed with FBS & phenol red-free media, and 100 μL of FBS & phenol red-free media containing a purified protein (final concentration: 10 μM) was added, followed by reaction at 37° C. for 24 hours.
Subsequently, the cells were washed with FBS & phenol red-free media, and 100 μL of FBS & phenol red-free media was added. 100 μL of FBS & Phenol red-free media (RPMI) containing a Co-h substrate solution (final concentration: 150 μM) was added, followed by reaction at 37° C. for 5 minutes.
After the reaction, 50 μL of SYTOX Green (final concentration: 261 nM) or 90 μL of ethidium homodimer (EthD-1) (final concentration 1×), which stains DNA of dead cells, was added, followed by reaction at 37° C. for 30 minutes. 10 μL of DAPI staining DNA of live cells was added, followed by reaction for 5 minutes. Cell death was confirmed by observing KillerRed, SYTOX Green, MiniSOG, EthD-1 and DAPI fluorescence using a confocal microscope.

Molecule | cell viability / colorimetric change of MTT with light irradiation time (MCF-7 cells [1]) | cell viability / colorimetric change of MTT with reaction time with Co-h (MCF-7 cells [2]) | cell death by staining (SYTOX Green or EthD-1 dead cells, DAPI live cells) (MCF-7 cells [3]) | cell death with Co-h substrate (MCF-7)
B1 | alive | the staining becomes pink | stained with DAPI | –
B2 | killed; also recorded: cell viability decreased | die and cell viability is reduced | stained with SYTOX Green or EthD-1; also recorded: the number of dead cells increases | killed them
B3 | alive | the staining becomes pink | stained with DAPI | none of the six breast cancer cell lines were killed
